Here are results for one molecule from publication PMC9563779 (2022).

For the test, the target named is extracellular domain of p95HER2 peptide with a poly-histidine-tag in the C-terminus (human). The experiment in a line: SPR.

B1: Oslo-2 mAb (antibody, V domains shown)
VH: EVQILETGGGLVKPGGSLRLSCATSGFNFNDYFMNWVRQAPGKGLEWIAQIRNKNYNYATYFAESLEGRFTISRDDSKSSVYLQVNSLRAEDTALYYCTELRYDYWGQGVMVTVSS
VL: DIVMTQSPFSLAVSEGEMVTINCKSSQSLLSSGNQKNNLAWYQQKPGQSPKLLIYYASTRQSGVPDRFIGSGSGTDFTLTISDVQAEDLADYYCLQHYSSPYTFGAGTKLELK
Consider B1, for which the koff (in general, the rate constant with which the complex falls apart) is 0.00893 s⁻¹.
